IntAct's records for PubMed 19632993

B1: Chromosomal replication initiator protein DnaA (Escherichia coli (strain K12)), P03004 (parent)
chain: MSLSLWQQCLARLQDELPATEFSMWIRPLQAELSDNTLALYAPNRFVLDWVRDKYLNNINGLLTSFCGADAPQLRFEVGTKPVTQTPQAAVTSNVAAPAQVAQTQPQRAAPSTRSGWDNVPAPAEPTYRSNVNVKHTFDNFVEGKSNQLARAAARQVADNPGGAYNPLFLYGGTGLGKTHLLHAVGNGIMARKPNAKVVYMHSERFVQDMVKALQNNAIEEFKRYYRSVDALLIDDIQFFANKERSQEEFFHTFNALLEGNQQIILTSDRYPKEINGVEDRLKSRFGWGLTVAIEPPELETRVAILMKKADENDIRLPGEVAFFIAKRLRSNVRELEGALNRVIANANFTGRAITIDFVREALRDLLALQEKLVTIDNIQKTVAEYYKIKVADLLSKRRSRSVARPRQMAMALAKELTNHSLPEIGDAFGGRDHTTVLHACRKIEQLREESHDIKEDFSNLIRTLSS
partner: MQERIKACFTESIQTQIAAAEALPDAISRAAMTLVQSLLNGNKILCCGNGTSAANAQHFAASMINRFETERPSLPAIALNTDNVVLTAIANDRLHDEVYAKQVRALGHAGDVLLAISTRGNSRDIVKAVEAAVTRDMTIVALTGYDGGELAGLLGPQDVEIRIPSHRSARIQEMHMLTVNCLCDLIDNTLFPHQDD

Variants of: B1
Conditions: with diaa_ecoli diaA

Variant	effect of a mutation on the interaction
MSLSLWQQCLARLQDELPATAFSMWIRPLQAELSDNTLALYAPNRFVLDWVRDKYLNNINGLLTSFCGADAPQLRFEVGTKPVTQTPQAAVTSNVAAPAQVAQTQPQRAAPSTRSGWDNVPAPAEPTYRSNVNVKHTFDNFVEGKSNQLARAAARQVADNPGGAYNPLFLYGGTGLGKTHLLHAVGNGIMARKPNAKVVYMHSERFVQDMVKALQNNAIEEFKRYYRSVDALLIDDIQFFANKERSQEEFFHTFNALLEGNQQIILTSDRYPKEINGVEDRLKSRFGWGLTVAIEPPELETRVAILMKKADENDIRLPGEVAFFIAKRLRSNVRELEGALNRVIANANFTGRAITIDFVREALRDLLALQEKLVTIDNIQKTVAEYYKIKVADLLSKRRSRSVARPRQMAMALAKELTNHSLPEIGDAFGGRDHTTVLHACRKIEQLREESHDIKEDFSNLIRTLSS [E21A]	decreasing interaction
MSLSLWQQCLARLQDELPATEFSMWIRPLQAELSDNTLALYAPNRAVLDWVRDKYLNNINGLLTSFCGADAPQLRFEVGTKPVTQTPQAAVTSNVAAPAQVAQTQPQRAAPSTRSGWDNVPAPAEPTYRSNVNVKHTFDNFVEGKSNQLARAAARQVADNPGGAYNPLFLYGGTGLGKTHLLHAVGNGIMARKPNAKVVYMHSERFVQDMVKALQNNAIEEFKRYYRSVDALLIDDIQFFANKERSQEEFFHTFNALLEGNQQIILTSDRYPKEINGVEDRLKSRFGWGLTVAIEPPELETRVAILMKKADENDIRLPGEVAFFIAKRLRSNVRELEGALNRVIANANFTGRAITIDFVREALRDLLALQEKLVTIDNIQKTVAEYYKIKVADLLSKRRSRSVARPRQMAMALAKELTNHSLPEIGDAFGGRDHTTVLHACRKIEQLREESHDIKEDFSNLIRTLSS [F46A]	disrupting interaction
